Experimental data published in the supplement of paper PMC9876800.

Test system: peptide library, one residue held at a place counted from the S/T acceptor
Assay: relative phosphorylation of the sub-library (ratio to the mean residue at this position); human; higher = residue favoured
In short: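 Human or orthologue kinase constructs, purified and recombinant, were incubated under kinase-specific conditions in 384-well plates with biotinylated degenerate peptide sub-libraries. Each sub-library fixed one residue at one position around a central Ser/Thr. Incubations lasted 90 min with peptides at 50 μM and 50 μM ATP spiked with γ-32P-ATP, after which spots on streptavidin membranes were phosphorimaged and quantified by densitometry. Relative sub-library phosphorylation is a ratio to the mean residue at that position.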

MASTL, construct: Full length, sequence (Q96GX5 whole entry, looked up): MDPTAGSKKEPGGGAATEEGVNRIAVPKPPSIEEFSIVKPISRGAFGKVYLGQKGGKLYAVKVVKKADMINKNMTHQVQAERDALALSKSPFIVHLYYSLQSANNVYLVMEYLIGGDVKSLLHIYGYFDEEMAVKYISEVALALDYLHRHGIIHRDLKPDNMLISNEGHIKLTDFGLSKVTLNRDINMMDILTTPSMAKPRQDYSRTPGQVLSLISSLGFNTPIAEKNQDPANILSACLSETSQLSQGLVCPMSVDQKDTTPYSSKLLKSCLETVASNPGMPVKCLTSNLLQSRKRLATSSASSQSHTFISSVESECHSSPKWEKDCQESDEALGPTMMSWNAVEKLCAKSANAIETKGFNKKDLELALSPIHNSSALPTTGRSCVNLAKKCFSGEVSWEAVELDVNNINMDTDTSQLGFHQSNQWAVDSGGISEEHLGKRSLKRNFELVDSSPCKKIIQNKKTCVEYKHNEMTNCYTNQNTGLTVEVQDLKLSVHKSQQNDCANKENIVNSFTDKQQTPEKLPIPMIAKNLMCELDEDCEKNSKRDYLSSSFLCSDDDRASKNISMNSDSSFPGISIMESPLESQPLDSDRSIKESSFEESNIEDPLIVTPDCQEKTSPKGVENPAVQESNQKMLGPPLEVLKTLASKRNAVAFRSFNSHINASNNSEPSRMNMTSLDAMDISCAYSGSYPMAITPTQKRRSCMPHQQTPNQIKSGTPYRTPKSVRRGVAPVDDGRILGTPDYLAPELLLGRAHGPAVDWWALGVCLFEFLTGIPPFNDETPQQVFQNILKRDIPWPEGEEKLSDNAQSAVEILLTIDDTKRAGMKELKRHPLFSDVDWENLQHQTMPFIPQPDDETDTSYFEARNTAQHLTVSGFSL
CSNK1A1L, construct: Full length, sequence (Q8N752 whole entry, looked up): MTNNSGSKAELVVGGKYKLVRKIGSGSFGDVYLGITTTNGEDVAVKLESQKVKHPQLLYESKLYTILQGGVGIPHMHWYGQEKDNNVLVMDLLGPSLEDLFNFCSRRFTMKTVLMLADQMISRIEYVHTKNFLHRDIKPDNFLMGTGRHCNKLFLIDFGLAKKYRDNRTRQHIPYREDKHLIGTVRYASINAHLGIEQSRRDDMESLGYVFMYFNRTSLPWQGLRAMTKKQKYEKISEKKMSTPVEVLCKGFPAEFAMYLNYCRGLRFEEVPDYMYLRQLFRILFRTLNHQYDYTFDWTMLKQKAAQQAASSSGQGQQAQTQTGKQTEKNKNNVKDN
PAK3, construct: Full length, sequence (O75914 whole entry, looked up): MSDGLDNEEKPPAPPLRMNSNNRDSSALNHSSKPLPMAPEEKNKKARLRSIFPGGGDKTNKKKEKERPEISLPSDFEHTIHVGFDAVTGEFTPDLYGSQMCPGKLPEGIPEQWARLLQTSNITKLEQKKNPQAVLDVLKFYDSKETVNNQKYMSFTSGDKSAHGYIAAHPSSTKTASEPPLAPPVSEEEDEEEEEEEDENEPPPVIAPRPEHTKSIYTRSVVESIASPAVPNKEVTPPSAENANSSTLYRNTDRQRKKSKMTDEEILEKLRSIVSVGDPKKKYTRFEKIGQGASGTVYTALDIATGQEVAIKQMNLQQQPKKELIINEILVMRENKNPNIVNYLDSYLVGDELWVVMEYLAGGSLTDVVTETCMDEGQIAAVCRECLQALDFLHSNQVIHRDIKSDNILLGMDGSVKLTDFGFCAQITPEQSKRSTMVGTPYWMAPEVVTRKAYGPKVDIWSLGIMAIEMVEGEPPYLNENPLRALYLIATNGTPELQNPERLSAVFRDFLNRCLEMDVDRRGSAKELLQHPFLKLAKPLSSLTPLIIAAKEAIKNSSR

CSNK1A1L, construct: Full length (from UniProt Q8N752)
relative phosphorylation
Conditions | at +1 | at +2 | at +3 | at +4 | at -1 | at -2 | at -3 | at -4 | at -5
A fixed | 0.971 | 1.06 | 1.06 | 1.04 | 1.09 | 1.69 | 0.946 | 0.941 | 0.921
D fixed | 0.691 | 0.714 | 0.868 | 0.854 | 0.749 | 0.716 | 1.06 | 0.888 | 0.771
E fixed | 0.871 | 0.578 | 0.9 | 0.871 | 0.977 | 0.991 | 2.26 | 1.1 | 0.78
F fixed | 0.886 | 1.12 | 1.17 | 1.05 | 0.872 | 0.81 | 0.784 | 0.965 | 1.27
G fixed | 0.849 | 0.885 | 1.07 | 0.992 | 1.21 | 0.819 | 0.778 | 0.948 | 0.897
H fixed | 0.744 | 0.98 | 0.899 | 0.858 | 0.896 | 0.748 | 0.734 | 0.933 | 0.985
I fixed | 1.87 | 1.66 | 1.19 | 1.03 | 0.879 | 0.847 | 0.965 | 1.13 | 1.1
K fixed | 0.883 | 1.02 | 0.845 | 1.09 | 1.2 | 1.35 | 1.13 | 1.24 | 1.27
L fixed | 1.19 | 0.964 | 1.07 | 1.11 | 1.01 | 0.903 | 0.811 | 1.08 | 1.09
M fixed | 1.03 | 1.02 | 1.17 | 1.08 | 1.13 | 0.839 | 0.751 | 0.96 | 1.09
N fixed | 0.745 | 0.702 | 0.795 | 0.777 | 0.997 | 0.798 | 0.704 | 0.96 | 0.874
P fixed | 0.719 | 0.705 | 0.904 | 1.1 | 1.02 | 1.19 | 0.741 | 0.873 | 0.874
Q fixed | 0.801 | 0.731 | 0.808 | 0.913 | 0.878 | 0.889 | 0.685 | 0.865 | 0.807
R fixed | 1.25 | 1.03 | 0.801 | 0.897 | 1.54 | 2.1 | 2.08 | 1.15 | 1.18
V fixed | 1.88 | 1.38 | 1.14 | 1.02 | 0.854 | 0.889 | 0.813 | 0.956 | 0.925
W fixed | 0.769 | 1.06 | 1.16 | 1.24 | 0.754 | 0.681 | 0.656 | 0.946 | 0.928
Y fixed | 0.854 | 1.4 | 1.15 | 1.07 | 0.94 | 0.737 | 1.09 | 1.08 | 1.25
pThr fixed | 1.69 | 0.803 | 1.25 | 1.64 | 2.06 | 3.58 | 53.8 | 5.13 | 1.56
pTyr fixed | 1.26 | 2.63 | 3.97 | 2.06 | 1.5 | 1.78 | 2.99 | 4.32 | 1.93

MASTL, construct: Full length (from UniProt Q96GX5)
relative phosphorylation
Conditions | at +1 | at +2 | at +3 | at +4 | at -1 | at -2 | at -3 | at -4 | at -5
A fixed | 0.775 | 1.04 | 0.823 | 1.03 | 0.921 | 0.862 | 0.89 | 1.04 | 1.22
D fixed | 0.64 | 0.706 | 0.711 | 0.972 | 0.826 | 0.719 | 0.63 | 0.69 | 0.66
E fixed | 0.62 | 0.693 | 0.766 | 0.951 | 0.769 | 0.611 | 0.679 | 0.717 | 0.639
F fixed | 1.95 | 1.38 | 1.3 | 0.962 | 0.948 | 1.74 | 1.13 | 1.02 | 1
G fixed | 1.59 | 0.711 | 1.14 | 0.867 | 1.46 | 1.13 | 1.02 | 1.2 | 1.28
H fixed | 0.772 | 0.99 | 0.949 | 1.07 | 1.01 | 1.51 | 1.43 | 1.31 | 1.47
I fixed | 1.21 | 1.23 | 1.19 | 0.878 | 0.543 | 0.585 | 0.66 | 0.696 | 0.841
K fixed | 0.534 | 0.531 | 0.573 | 0.841 | 0.87 | 0.579 | 0.927 | 0.956 | 0.889
L fixed | 1.06 | 0.959 | 1.1 | 0.941 | 1.06 | 0.579 | 0.715 | 0.656 | 0.941
M fixed | 1.71 | 1.15 | 1.15 | 1.02 | 1.25 | 0.846 | 1 | 0.938 | 0.94
N fixed | 0.789 | 0.95 | 0.749 | 1.05 | 1.06 | 1.16 | 1.03 | 1.34 | 1.05
P fixed | 0.664 | 0.65 | 0.704 | 1.31 | 1.59 | 0.804 | 1.01 | 0.965 | 1.07
Q fixed | 1.09 | 0.761 | 0.804 | 1.09 | 1.15 | 0.839 | 0.985 | 0.913 | 0.841
R fixed | 0.614 | 0.579 | 0.555 | 0.726 | 0.889 | 0.767 | 1.55 | 1 | 0.953
V fixed | 0.944 | 1.16 | 0.875 | 0.831 | 0.649 | 0.558 | 0.678 | 0.703 | 0.909
W fixed | 1.03 | 1.6 | 2.11 | 1.28 | 0.913 | 1.82 | 1.23 | 1.35 | 1.27
Y fixed | 1.01 | 1.9 | 1.5 | 1.18 | 1.1 | 1.9 | 1.42 | 1.49 | 1.03
pThr fixed | 1 | 0.912 | 0.984 | 1.27 | 0.833 | 0.827 | 0.939 | 0.844 | 0.94
pTyr fixed | 0.8 | 1.07 | 0.973 | 0.944 | 0.711 | 0.771 | 0.812 | 0.834 | 0.784

STK39, construct: Full length (from UniProt Q9UEW8)
relative phosphorylation
Conditions | at +1 | at +2 | at +3 | at +4 | at -1 | at -2 | at -3 | at -4 | at -5
A fixed | 0.382 | 0.623 | 0.889 | 0.918 | 0.783 | 0.729 | 0.996 | 1 | 1.13
D fixed | 0.233 | 0.398 | 0.795 | 0.812 | 1.29 | 1.04 | 1.1 | 1.47 | 1.27
E fixed | 0.266 | 0.234 | 0.96 | 0.651 | 1.05 | 0.826 | 0.895 | 1.36 | 1.07
F fixed | 1.17 | 0.908 | 0.901 | 0.899 | 0.908 | 1.05 | 0.783 | 0.88 | 0.983
G fixed | 0.24 | 0.824 | 1.06 | 1.27 | 0.606 | 0.888 | 0.933 | 1.2 | 1.07
H fixed | 1.01 | 4.16 | 1.32 | 0.999 | 1.62 | 1.44 | 1.47 | 1.07 | 0.932
I fixed | 2.61 | 0.696 | 0.654 | 0.739 | 0.638 | 0.409 | 0.615 | 0.672 | 0.679
K fixed | 0.432 | 0.55 | 0.862 | 1.15 | 0.818 | 0.414 | 0.61 | 0.771 | 0.927
L fixed | 1.56 | 0.65 | 1.01 | 0.921 | 1.32 | 0.721 | 0.646 | 0.76 | 0.619
M fixed | 1.33 | 0.873 | 1.05 | 0.952 | 1.18 | 0.744 | 0.763 | 0.832 | 0.866
N fixed | 0.453 | 1.08 | 1.27 | 1.18 | 1.34 | 1.29 | 1.59 | 1.02 | 0.95
P fixed | 0.175 | 0.523 | 0.906 | 1.14 | 0.49 | 0.539 | 0.937 | 1.05 | 1.24
Q fixed | 0.661 | 1.03 | 1.19 | 1.19 | 0.963 | 1.91 | 1.09 | 0.959 | 0.892
R fixed | 0.517 | 0.824 | 1.06 | 1.18 | 1.04 | 0.529 | 0.677 | 0.831 | 0.96
V fixed | 1.84 | 1.04 | 0.72 | 0.694 | 0.584 | 0.457 | 0.623 | 0.769 | 0.911
W fixed | 2.89 | 0.987 | 1.16 | 1.37 | 1.06 | 1.17 | 1.03 | 1.18 | 1.17
Y fixed | 1.23 | 1.61 | 1.19 | 0.933 | 1.3 | 2.84 | 2.24 | 1.17 | 1.34
pThr fixed | 0.677 | 0.474 | 0.767 | 0.493 | 0.867 | 0.793 | 1.11 | 1.19 | 1.25
pTyr fixed | 0.614 | 0.352 | 1 | 0.586 | 1.77 | 1.16 | 1.02 | 1.25 | 1.45

PAK3, construct: Full length (from UniProt O75914)
relative phosphorylation
Conditions | at +1 | at +2 | at +3 | at +4 | at -1 | at -2 | at -3 | at -4 | at -5
A fixed | 0.949 | 1.12 | 1.05 | 1.07 | 0.974 | 0.862 | 0.985 | 1.32 | 1.33
D fixed | 0.291 | 0.36 | 0.768 | 0.986 | 0.485 | 0.178 | 0.437 | 0.64 | 0.604
E fixed | 0.356 | 0.297 | 0.701 | 0.89 | 0.463 | 0.19 | 0.415 | 0.665 | 0.547
F fixed | 1.14 | 1.37 | 1.37 | 0.847 | 0.752 | 0.471 | 0.59 | 0.732 | 0.876
G fixed | 0.706 | 0.615 | 0.97 | 1.13 | 0.716 | 0.449 | 0.825 | 1.32 | 1.24
H fixed | 1.09 | 1.57 | 1.2 | 1.14 | 1.31 | 1.61 | 1.32 | 1.29 | 1.1
I fixed | 1.27 | 1.19 | 0.983 | 0.777 | 0.701 | 0.624 | 0.494 | 0.629 | 0.643
K fixed | 1.07 | 0.645 | 0.764 | 1.03 | 1.61 | 1.3 | 2.22 | 1.28 | 1.81
L fixed | 1.1 | 1.17 | 1.12 | 0.905 | 1.11 | 0.439 | 0.558 | 0.689 | 0.636
M fixed | 1.54 | 1.04 | 1.02 | 0.933 | 1.12 | 0.48 | 0.693 | 0.873 | 0.681
N fixed | 0.749 | 0.728 | 0.847 | 1.03 | 1.04 | 0.584 | 0.825 | 0.966 | 0.863
P fixed | 0.21 | 0.655 | 0.976 | 1.45 | 0.611 | 0.817 | 0.823 | 1.14 | 1.09
Q fixed | 1.09 | 0.729 | 0.886 | 1.17 | 1 | 0.715 | 0.878 | 1.05 | 0.93
R fixed | 1.35 | 0.853 | 0.819 | 0.933 | 2.06 | 6.37 | 3.73 | 1.86 | 2.24
V fixed | 1.12 | 1.11 | 0.955 | 0.908 | 0.914 | 0.748 | 0.512 | 0.756 | 0.757
W fixed | 1.66 | 1.11 | 1.26 | 1.04 | 0.976 | 0.423 | 0.907 | 0.901 | 0.812
Y fixed | 1.3 | 2.44 | 1.3 | 0.753 | 1.16 | 0.747 | 0.785 | 0.89 | 0.852
pThr fixed | 0.479 | 0.471 | 0.632 | 0.99 | 0.367 | 0.411 | 0.546 | 0.754 | 0.574
pTyr fixed | 0.635 | 2.43 | 0.9 | 0.76 | 0.605 | 0.323 | 0.743 | 0.654 | 0.619
